# Measurements reported in publication PMC8346469.
# Target: homo-oligomeric archaeal chaperonin from Methanococcus maripaludis (MmCpn) (Methanococcus maripaludis)
# Experiment: cryo-EM structure; MmCpn 4 uM mixed on ice with 32 uM ATP (1 hexadecamer to 8 ATP), frozen immediately; single-particle reconstruction with D8 symmetry (also C1), 3.9 Å; focused classification of rings and subunits
substance,measurement,value
homo-oligomeric archaeal chaperonin from Methanococcus maripaludis (MmCpn) (natural protein),stoichiometry N,16 subunits
